T1: human Ang2 protein (R&D systems) (human, UniProt O15123 19-496)
T1 sequence: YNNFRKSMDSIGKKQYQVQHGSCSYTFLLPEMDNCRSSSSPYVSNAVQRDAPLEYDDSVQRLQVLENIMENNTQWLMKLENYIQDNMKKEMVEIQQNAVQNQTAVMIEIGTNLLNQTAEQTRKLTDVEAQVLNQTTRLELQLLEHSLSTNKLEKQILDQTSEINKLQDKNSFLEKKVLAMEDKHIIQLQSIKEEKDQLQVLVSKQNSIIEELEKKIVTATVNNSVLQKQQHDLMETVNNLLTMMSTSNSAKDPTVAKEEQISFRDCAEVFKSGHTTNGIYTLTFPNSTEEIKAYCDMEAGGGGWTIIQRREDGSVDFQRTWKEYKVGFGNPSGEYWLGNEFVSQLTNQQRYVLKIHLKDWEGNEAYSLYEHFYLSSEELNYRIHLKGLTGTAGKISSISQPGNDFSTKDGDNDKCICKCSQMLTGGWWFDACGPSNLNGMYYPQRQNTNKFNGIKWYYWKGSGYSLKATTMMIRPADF

T2: hAng1 (human, UniProt Q15389 20-498, limits assumed)
T2 construct: Tested by the same SPR set-up as hAng2; the construct is not described; also called human Ang1
T2 sequence (looked up): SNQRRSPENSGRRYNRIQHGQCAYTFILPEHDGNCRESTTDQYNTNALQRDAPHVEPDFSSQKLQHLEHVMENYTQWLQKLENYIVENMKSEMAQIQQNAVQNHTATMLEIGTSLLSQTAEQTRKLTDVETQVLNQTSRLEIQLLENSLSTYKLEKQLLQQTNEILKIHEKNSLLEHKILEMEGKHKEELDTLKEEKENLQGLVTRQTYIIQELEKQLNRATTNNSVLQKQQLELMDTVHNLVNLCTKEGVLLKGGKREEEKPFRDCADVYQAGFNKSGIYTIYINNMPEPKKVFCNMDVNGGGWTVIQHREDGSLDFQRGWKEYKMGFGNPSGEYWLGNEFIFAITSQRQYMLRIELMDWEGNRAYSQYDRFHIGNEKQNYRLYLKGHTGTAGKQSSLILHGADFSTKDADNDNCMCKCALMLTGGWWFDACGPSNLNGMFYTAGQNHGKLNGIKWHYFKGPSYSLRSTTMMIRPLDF

T3: FLAG-tagged hAng-2 (human, UniProt O15123 19-496)
T3 sequence: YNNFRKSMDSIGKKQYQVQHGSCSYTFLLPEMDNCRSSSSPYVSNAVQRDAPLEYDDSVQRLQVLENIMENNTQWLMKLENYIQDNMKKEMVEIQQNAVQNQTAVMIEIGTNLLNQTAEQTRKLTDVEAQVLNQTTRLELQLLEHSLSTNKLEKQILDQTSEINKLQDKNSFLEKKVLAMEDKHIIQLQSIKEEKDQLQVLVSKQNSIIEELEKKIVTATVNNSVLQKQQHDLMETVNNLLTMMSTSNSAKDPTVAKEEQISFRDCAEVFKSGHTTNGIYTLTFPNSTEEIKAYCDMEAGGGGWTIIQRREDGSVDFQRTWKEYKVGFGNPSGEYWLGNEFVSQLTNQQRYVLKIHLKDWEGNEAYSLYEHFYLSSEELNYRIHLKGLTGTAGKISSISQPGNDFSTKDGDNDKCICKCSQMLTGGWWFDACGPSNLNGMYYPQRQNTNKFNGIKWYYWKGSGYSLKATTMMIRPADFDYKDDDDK

T4: recombinant hAng-2 (C-His, R&D Systems) (human, UniProt O15123 19-496)
T4 construct: Bought protein; Captured on an anti-His antibody chip for SPR; also called human Ang2; not shown: C-terminal His tag
T4 sequence: T1 sequence

B1: SAIT-ANG2-AB-m1A10 (antibody, V domains shown)
VH: QVQLQQSGAELMKPGASVKISCKATDYTFSSYWLEWLIQRPGHGLEWIGEILPGSGSTNYNEKFRGKATFTEDTSSNTAYMQLSSLTSEDSAVYYCARGNHNSYYYAMDYWGQGTSVTVSS
VL: DIVLTQSPASLAVSLGQRATISCRASESVDSYGNSFMHWYQQKPGQPPKLLIYRASNLDSGIPARFSGSGSRTDFTLTINPVEADDVATYYCQQSNEDPLTFGAGTKLELK
notes: also called hybridoma KCLRF-BP-00306
B2: SAIT-ANG2-AB-m8D3 (antibody, V domains shown)
VH: EVQLQQSGPELVKPGDSVKMSCKASGYTFTDYYMKWVRQSHGKSLQWVGEINPKNGDTFYNQIFKGKATLTVDKSSSTAYMQLTSLTSEDSAVYYCTRENDYDVGFFDYWGQGTSVTVSS
VL: TIVMTQTPKFLLVSAGDRITITCKASQSVSNDVAWYQQKPGQSPKLLIYYASNRYPGVPDRFTGSGYGTDFTFTISTVQAEDLAVYFCQQDYTSPWTFGGGTELEIK
notes: also called hybridoma KCLRF-BP-00308
B3: SAIT-ANG2-AB-m3E2 (antibody, V domains shown)
VH: EVQLQQSGAELVKPGASVKLSCTASGFNIKDPYIHWVKQRPEQGLEWIGRIDPANGNTKYDPKFQGKATITADTSSNTAYLQLSSLTSEDTAVYYCVRRWDGGGFDYWGQGTSVTVSS
VL: DIQMTQTTSSLSASLGDRVTISCRASQDISNYLNWYQQKPDGTVKLLIYYTSRLHSGVPSRFSGSGSGTDYSLTITNLEQEDIATYFCQQGNTLPWTFGGGTKLEIK
notes: also called hybridoma KCLRF-BP-00305

The binders below were run against T1, human Ang2 protein (R&D systems) (assay: cell-based or functional assay).

Tie2 phosphorylation inhibition (%), antibody at 50 nM, Tie2-overexpressing CHO cells with 20 nM human Ang2	Binder
82%	B1
76.7%	B2
76.9%	B3

These binders were tested against T2, hAng1 (assay: SPR, BIAcore T100).

Binder	binding result
B1	no binding (tested: 100 nM (highest antibody concentration))
B2	no binding (tested: 100 nM (highest antibody concentration))
B3	no binding (tested: 100 nM (highest antibody concentration))

What follows are binders tested against T3, FLAG-tagged hAng-2 (assay: Ang2:Tie2 competition ELISA; hTie2-Fc coated, 400 ng/ml FLAG-tagged hAng-2, anti-FLAG-HRP detection).
Protocol: More specifically, MaxiSorp™ flat-bottom plate (Nunc) of 96-well was coated with hTie2-Fc (R&D Systems) which is a protein bound with 4 μg/ml of Fc of human IgG1. After coating, the plate was washed five times with 0.05% (v/v) Tween-20-containing PBS (phosphate buffer saline) and then blocked with 1% (v/v) BSA (bovine serum albumin; Sigma)-containing PBS at a room temperature for 2 hour.
For Ang2:Tie2 competition ELISA, each anti-Ang2 antibody obtained in Example 2 was placed at various concentrations of 400 nM-0.001 nM into each well coated with the hTie-2/Fc fusion protein along with 1% (v/v) BSA and 400 ng/ml of a FLAG-tagged hAng-2 and then, the plate was allowed to react at a room temperature for 2 hours and washed five times with PBST. After that, a HRP-conjugated anti-FLAG antibody (Sigma) diluted in 1% (v/v) BSA-containing PBS at a ratio of 1:5,000 (v/v) was added in an amount of […] to each well to react at a room temperature for 1 hour and then, the plate was washed five times with PBST. Lastly, 100 μl of TMB substrate (Cell Signaling) was added to each well of the plate to induce color development for 3 min. and then, the reaction was ceased by the addition of 100 μl of Stop solution (Cell Signaling) and OD450 values were measured on a plate reader (Molecular Devices).

IC50	Binder
1.34 nM	B1
0.99 nM	B2
0.55 nM	B3

These binders were tested against T4, recombinant hAng-2 (C-His, R&D Systems) (assay: SPR, BIAcore T100; hAng-2 C-His captured on anti-His chip, antibody flowed).
Protocol: To more exactly measure the binding affinity of the anti-Ang2 antibodies to antigen Ang2, the binding affinity of the above antibodies to the antigen was measured by an surface plasmon resonance (SPR) method using BIAcore T100 (GE Healthcare). The SPR method uses refractive index change of light which passes a sensor chip according to the state of materials coated onto the sensor chip, and if an antigen or an antibody is flowed onto a chip coated with the antigen or antibody, it causes changes in refractive index due to their binding and Kd values are thus calculated from the measured values.
First, anti-His antibody was immobilized on a CM5 sensor chip (GE healthcare) up to 8,000 RU levels using a pH 5.0 acetate solution and an amine coupling kit (GE Healthcare). 6 μg/ml of a recombinant hAng-2 (C-His, R&D Systems) protein was flowed onto the chip to be captured at 100 to 200 RU levels.

Kd	Binder
4.2 nM	B1
4 nM	B2
1.3 nM	B3
